Tests used:
c-Jun [1] = target: T1, c-Jun (Mus musculus, UniProt P05627 P05627:1-334); assay: EMSA; consensus MARE contains core TRE site; details: tags: full-length, pGEM4, rabbit reticulocyte lysate TnT; label: 32P
Description: (§1) Electrophoretic mobility shift assays (EMSA) were performed as follows. 100 ng of double-stranded oligonucleotides were end-labeled with γ-³²P-dATP (DuPont NEN Research Product, Wilmington, Del.) using T4 polynucleotide kinase (Pharmacia LKB Biotechnology, Inc., Piscataway, N.J.). The labeled ds-oligonucleotides were fractionated on 15-20% polyacrylamide gels, eluted overnight at 37° C. in 1×TE and precipitated in ethanol. Binding assays were performed at room temperature for 20 minutes using 0.5 μg of recombinant proteins or 4 μl of in vitro translated products, 500 ng poly(dI-dC), and 20,000 cpm of probe in a 15 μl volume of 20 mM HEPES (pH 7.9), 100 mM KCl, 5% glycerol, 1 mM EDTA, 5 mM DTT, 0.1% NP-40, and 0.5 mg/ml BSA. The samples were then fractionated in 4% non-denaturing polyacrylamide gel containing 0.5×TBE at room temperature. Oligonucleotides derived from the murine IL4 promoter used in EMSA were: […]

[2] = target: T2, c-Maf (b-zip domain, aa 171-371) (UniProt P54843 P54843:171-370); assay: EMSA; 20 mM HEPES pH 7.9, 100 mM KCl, room temperature; details: tags: S-Tag, pET29, E. coli BL21(DE3); label: 32P
Description: as §1

c-Jun [3] = target: T1, c-Jun; assay: EMSA; details: tags: full-length, pGEM4, rabbit reticulocyte lysate TnT; label: 32P
Description: (§2) Electrophoretic mobility shift assays (EMSA) were performed as follows. 100 ng of double-stranded oligonucleotides were end-labeled with γ-³²P-dATP (DuPont NEN Research Product, Wilmington, Del.) using T4 polynucleotide kinase (Pharmacia LKB Biotechnology, Inc., Piscataway, N.J.). The labeled ds-oligonucleotides were fractionated on 15-20% polyacrylamide gels, eluted overnight at 37° C. in 1×TE and precipitated in ethanol. Binding assays were performed at room temperature for 20 minutes using 0.5 μg of recombinant proteins or 4 μl of in vitro translated products, 500 ng poly(dI-dC), and 20,000 cpm of probe in a 15 μl volume of 20 mM HEPES (pH 7.9), 100 mM KCl, 5% glycerol, 1 mM EDTA, 5 mM DTT, 0.1% NP-40, and 0.5 mg/ml BSA. The samples were then fractionated in 4% non-denaturing polyacrylamide gel containing 0.5×TBE at room temperature. Oligonucleotides derived from the murine IL4 promoter used in EMSA were:
(§3) NF-AT proteins interact cooperatively with AP-1 family member proteins to form higher mobility complexes on IL-2 and IL-4 promoter DNA on EMSA (Jain, J. (1993) Nature 365:353-355; Rooney, J. et al. (1995) Immunity 2:545-553). […] To determine if c-Maf interacted with NF-AT in the presence of DNA, recombinant NF-ATp and c-Maf proteins were used separately or together in EMSA with the 33 bp oligonucleotide containing both the NF-AT and adjacent MARE sites. […]

[4] = target: T2, c-Maf (b-zip domain, aa 171-371); assay: EMSA; competed by homologous unlabeled probe; additional complex formed with NF-ATp; details: tags: S-Tag, pET29, E. coli BL21(DE3); label: 32P
Description: as §2, §3

T2 sequence (P54843 171-370, one chain of several): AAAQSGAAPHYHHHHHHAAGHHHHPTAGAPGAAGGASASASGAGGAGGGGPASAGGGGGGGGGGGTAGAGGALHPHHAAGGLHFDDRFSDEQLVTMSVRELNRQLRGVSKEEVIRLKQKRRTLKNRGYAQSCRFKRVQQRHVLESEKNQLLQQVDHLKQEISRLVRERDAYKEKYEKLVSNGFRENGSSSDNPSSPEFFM
T1 sequence (P05627 whole entry, one chain of several): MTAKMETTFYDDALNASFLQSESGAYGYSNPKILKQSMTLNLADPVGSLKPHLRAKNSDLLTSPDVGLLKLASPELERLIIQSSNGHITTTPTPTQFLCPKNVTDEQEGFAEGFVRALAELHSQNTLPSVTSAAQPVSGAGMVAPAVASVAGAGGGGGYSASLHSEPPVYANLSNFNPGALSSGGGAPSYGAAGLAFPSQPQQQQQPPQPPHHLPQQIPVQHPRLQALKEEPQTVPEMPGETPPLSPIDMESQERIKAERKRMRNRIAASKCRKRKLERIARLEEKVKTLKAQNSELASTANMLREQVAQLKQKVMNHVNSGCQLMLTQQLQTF

B1: consensus MARE (dsDNA)
DNA 1: GGAATTGCTGACTCAGCATTACT
DNA 2: AGTAATGCTGAGTCAGCAATTCC
binding result (c-Jun [1]): binds | binding result [2]: binds

B2: IL-4 promoter -59 to -27 wild type (dsDNA)
DNA 1: CTCATTTTCCCTTGGTTTCAGCAACTTTAACTC
DNA 2: GAGTTAAAGTTGCTGAAACCAAGGGAAAATGAG
binding result (c-Jun [3]): no binding | binding result [4]: binds
